Results taken from US20250090677A1 (MULTITUDE THERAPEUTICS, published 2025).
Residue numbers refer to the chain shown, from its start.

Columns and labels:
Assay in all cases: ELISA, antigen coated at 1 ug/mL, 3-fold antibody dilutions, HRP anti-human antibody, OD450
Human CDH6-ECD-His = molecular target: T1, Human CDH6-ECD-His (human, UniProt P55285 54-615)
T1 construct: extracellular domain; Bought protein; also called human CDH6-ECD-His recombinant protein; Human CDH6-EC6D-His; not shown: His tag
T1 sequence (looked up): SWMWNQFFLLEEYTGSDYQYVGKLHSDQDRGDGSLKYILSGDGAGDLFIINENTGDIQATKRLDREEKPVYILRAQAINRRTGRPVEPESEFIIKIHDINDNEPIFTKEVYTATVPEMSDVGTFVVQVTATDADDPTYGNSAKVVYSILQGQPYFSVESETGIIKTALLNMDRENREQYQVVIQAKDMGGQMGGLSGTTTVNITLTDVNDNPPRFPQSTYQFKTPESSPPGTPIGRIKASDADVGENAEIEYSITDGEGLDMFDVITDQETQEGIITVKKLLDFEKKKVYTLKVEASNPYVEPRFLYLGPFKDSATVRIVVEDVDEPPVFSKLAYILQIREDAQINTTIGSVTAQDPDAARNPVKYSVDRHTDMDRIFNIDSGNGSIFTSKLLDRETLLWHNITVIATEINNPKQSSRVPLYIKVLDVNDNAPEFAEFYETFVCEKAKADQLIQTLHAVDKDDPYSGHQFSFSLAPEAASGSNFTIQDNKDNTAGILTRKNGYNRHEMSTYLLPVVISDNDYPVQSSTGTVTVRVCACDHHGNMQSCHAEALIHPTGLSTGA
Protocol: (§1) CDH9 and […] are the most closely related family members to CDH6. Binding of CL069707-H1L1 on human CDH6, CDH9 and CDH10 ECD domains were analyzed by ELISA Binding Assay. Human […], CDH9-ECD-His and CDH10-ECD-His antigens were obtained from Acro Biosystems, Inc. 100 μL of 1 μg/mL of the antigens diluted in PBS were added to 96 well plates and incubated in 4° C. overnight. The plates were washed 3 times with 300 μL of washing buffer. Then 100 μL/well of 1% BSA blocking reagent were added to the plates, and incubated at 37° C. for 1 h then the blocking reagent were discarded. A 3-fold serial dilution of CL069707-H1L1 was added to the plates and then incubated at 37° C. for 1 h. Then the plates were washed 3 times with 300 μL of washing buffer. 100 μL/well of HRP-conjugated anti-Human antibody diluted in 1% BSA were added to the plates and then incubated at 37° C. for 1 h. The plates were washed 3 times with 300 μL of washing buffer. 100 μL/well of TMB substrate were added to the plates and incubated for about 10 min in room temperature. Then the reaction was stopped with 100 μL/well of stopping solution. OD450 was read with a plate reader and the data were processed.
(§2) Binding of CL069707-H1L1 on human, cyno monkey, mouse or rat CDH6 antigen were analyzed by ELISA. Human, cyno monkey, mouse and rat CDH6-ECD-His antigens were obtained from Acro Biosystems, Inc. ELISA were done with the same methods as in example 3.1. CL069707-H1L1 binds to human, cyno monkey, mouse and rat CDH6-ECD-His antigens with similar EC50.

cyno monkey CDH6-ECD-His = molecular target: T2, cyno monkey CDH6-ECD-His (cyno monkey, UniProt A0A2K5TW62 54-615)
T2 construct: extracellular domain; Bought protein; also called Cyno CDH6-ECD-His; not shown: His tag
T2 sequence: T1 sequence (looked up) with Y300H, H457R
Protocol: as §1, §2

rat CDH6-ECD-His = molecular target: T3, rat CDH6-ECD-His (rat, UniProt P55280 54-615)
T3 construct: extracellular domain; Bought protein; not shown: His tag
T3 sequence (looked up): T1 sequence (looked up) with E109D, S119A, L260H, K288R, Y300H, V301I, E322D, L333P, T353A
Protocol: as §1, §2

EC50 (read off the curve) (Human CDH6-ECD-His): ~100 pM
EC50 (read off the curve) (cyno monkey CDH6-ECD-His): ~100 pM
EC50 (read off the curve) (rat CDH6-ECD-His): ~100 pM
B1: CL069707-H1L1 (antibody, human IgG1, kappa, V domains shown)
VH: EVQLVESGGGLVQPGGSLRLSCAASGFTFTTYAMNWVRQAPGKGLEWVARIRIKNNNYATYYADSVTDRFTISRDDSKNSLYLQMNSLKTEDTAVYYCVRPDYGNYGLAYWGQGTLVTVSS
VL: DIQLTQSPSSLSASVGDRVTITCSASSSISSHYLHWYQQKPGKSPKLLIYRSFYLASGVPSRFSGSGSGTDFTLTISSLQPEDFATYYCQQDIVPLTFGQGTKLEIKR
notes: Humanized IgG1/kappa, produced in 293 cells; also called humanized CL069707-H1L1
